Legend:
[1] = test system: H1299 cells; assay: Single, live cell imaging: duration of mitosis phases of cells expressing PTTG-EGFP; format: cell-based, human; conditions: 18 hours after transfection
Experimental: (§1) Human H1299 cells were grown in Dulbeccos's Modified Eagle Medium (DMEM) with 10% Fetal Bovine Serum (FBS) and transfected with Lipofectamine 2000 (obtained from Invitrogen Corporation; Carlsbad, Calif.; hereinafter “Invitrogen”). PTTG-EGFP and p55CDC-EGFP were constructed by cloning PTTG or p55CDC (obtained from Amgen, Inc.; Thousand Oaks, Calif.) into pEGFP-N3 (obtained from BD Biosciences Clontech; Palo Alto, Calif.; hereinafter “Clontech”). Non-degradable mutant PTTG-EGFP was obtained from Dr. Chris McCabe (University of Birmingham, England, UK). EGFP was at the C-terminus of PTTG or p55CDC. Cells were studied (microscopy or by Western blot) 18 to 24 hours after transfection.
(§2) Observation of individual live cells over 48 hours or longer was performed by incubating cells in an FCS2 Closed Perfusion System (obtained from Bioptechs; Butler, Pa.). Cells were perfused with CO2-independent L15 medium (obtained from Invitrogen) supplemented with 10% FBS and penicillin/streptomycin and saturated with ambient air. Perfusion chamber temperature was set to 37° C., and cells were grown in the perfusion system for up to a week until confluency.
(§3) The perfusion chamber was placed on an inverted fluorescence microscope (obtained from Nikon Corporation; Melville, N.Y.) and observed with a 40× extra-long working distance objective lens. Cells were observed from every few seconds to every several hours depending on the speed of cell changes. Durations of mitosis phases were determined by counting the minutes between two sequential mitotic milestones. Phase-contrast and EGFP fluorescent images were taken simultaneously at frequencies ranging from every minute (e.g., during metaphase to anaphase transition) to every few hours (e.g., after telophase), with a CCD digital camera.
(§4) Relative fluorescence intensity was objectively determined with the application of two neutral density filters (NDFs). Each NDF reduces incident light by 50%. High fluorescence was defined when a cell was clearly visualized after application of two NDFs. Medium fluorescence was defined as a cell clearly visualized after application of one but not two NDFs. Low fluorescence was defined as a cell only visualized when neither NDF was applied.
As depicted in Table 1, prophase (Pro), metaphase (Meta), anaphase (Ana), and telophase (Telo) durations were recorded (in minutes) in untransfected control cells (Control), cells expressing EGFP only (EGFP), and in cells expressing PTTG-EGFP (PTTG-EGFP) 18 hours after transfection. […] For some cells expressing PTTG-EGFP, no distinct anaphase or telophase was seen because of abnormal chromosome segregation and cytokinesis.

[2] = test system: H1299 cells; assay: Single, live cell imaging: destiny of mitosis (PTTG degradation, chromosome segregation, cytokinesis, aneuploidy); format: cell-based, human
Experimental: as §1, §2, §3, §4
As failure of PTTG degradation is associated with chromosome non-segregation, an EGFP-tagged non-degradable mutant PTTG (DM-PTTG-EGFP) was expressed in H1299 cells and chromosome segregation and cytokinesis of individual live cells observed (FIG. 6; FIG. 5A). Similar to the wild-type PTTG, DM-PTTG localizes to mitotic spindles (FIGS. 5B-5G) and chromosomes (data not shown). […] Most (51/55) cells underwent asymmetrical cytokinesis, while some cells decondensed chromosomes; macronuclei ensued in both cases. During asymmetrical cytokinesis, chromosomes and mitotic spindles were closely attached and moved to one cell pole (FIGS. 5B-5G). The cytokinesis furrow occurred roughly at the position of the distal centrosome (FIGS. 5C and 5D). Both centrosomes were retained in the daughter cell containing chromosomes (FIGS. 5E and 5F).

[3] = High expression level (fluorescence)
[4] = Low expression level (fluorescence)
[5] = Medium expression level (fluorescence)

B1: PTTG-EGFP: EGFP-tagged PTTG (pituitary tumor transforming gene product), EGFP at the C-terminus, expressed in H1299 cells by transfection (protein, UniProt O95997 2-202, looked up)
Securin: ATLIYVDKENGEPGTRVVAKDGLKLGSGPSIKALDGRSQVSTPRFGKTFDAPPALPKATRKALGTVNRATEKSVKTKGPLKQKQPSFSAKKMTEKTVKAKSSVPASDDAYPEIEKFFPFNPLDFESFDLPEEHQIAHLPLSGVPLMILDEERELEKLFQLGPPSPVKMPSPPWESNLLQSPSSILSTLDVELPPVCCDIDI
modifications: C-terminal EGFP tag
notes: EGFP-tagged PTTG (pituitary tumor transforming gene product), EGFP at the C-terminus, expressed in H1299 cells by transfection
- Duration of metaphase (Meta) [1, 3]: 112 ± 31 min
- Duration of prophase (Pro) [1, 3]: 59 ± 7 min
- Duration of anaphase (Ana) [1, 4]: 4 ± 0 min
- Duration of metaphase (Meta) [1, 4]: 26 ± 4 min
- Duration of prophase (Pro) [1, 4]: 25 ± 3 min
- Duration of telophase (Telo) [1, 4]: 5 ± 0 min
- Duration of anaphase (Ana) [1, 5]: 4 ± 0 min
- Duration of metaphase (Meta) [1, 5]: 49 ± 16 min
- Duration of prophase (Pro) [1, 5]: 35 ± 12 min
- Duration of telophase (Telo) [1, 5]: 5 ± 0 min
- Cells with anaphase bridge ([2]; 65 cells expressing PTTG-EGFP observed): 2/65
- Time of degradation prior to the onset of anaphase ([2]; cells that underwent apparently normal mitosis): about 1 minute
- Aneuploidy of daughter cells ([2]; parent cells expressing high levels): All daughter cells
- Aneuploidy rate of daughter cells ([2]; parent cells expressing low levels): 18%
- Aneuploidy rate of daughter cells ([2]; parent cells expressing medium levels): 63%
